# Publication PMC3737412, “Species-Specific and Cross-Reactive IgG1 Antibody Binding to Viral Capsid Protein 1 (VP1) Antigens of Human Rhinovirus Species A, B and C” (PLoS ONE, 2013)
# B1: Recombinant GST-fusion HRV-A1B VP1 with a C-terminal histidine tag (natural protein)
# chain: SGPIEQNPVENYIDEVLNEVLVVPNIKESHHTTSNSAPLLDAAETGHTSNVQPEDAIETRYVMTSQTRDEMSIESFLGRSGCVHISRIKVDYNDYNGVNKNFTTWKITLQEMAQIRRKFELFTYVRFDSEVTLVPCIAGRGDDIGHVVMQYMYVPPGAPIPKTRNDFSWQSGTNMSIFWQHGQPFPRFSLPFLSIASAYYMFYDGYDGDNSSSKYGSIVTNDMGTICSRIVTEKQEHPVVITTHIYHKAKHTKAWCPRPPRAVPYTHSRVTNYVPKTGDVTTAIVPRASMKTV
# B2: Recombinant GST-fusion HRV-B14 VP1 with a C-terminal histidine tag (natural protein)
# chain: TVALTEGLGDELEEVIVEKTKQTVASISSGPKHTQKVPILTANETGATMPVLPSDSIETRTTYMHFNGSETDVECFLGRAACVHVTEIQNKDATGIDNHREAKLFNDWKINLSSLVQLRKKLELFTYVRFDSEYTILATASQPDSANYSSNLVVQAMYVPPGAPNPKEWDDYTWQSASNPSVFFKVGDTSRFSVPYVGLASAYNCFYDGYSHDDAETQYGITVLNHMGSMAFRIVNEHDEHKTLVKIRVYHRAKHVEAWIPRAPRALPYTSIGRTNYPKNTEPVIKKRKGDIKSY
# Experiments:
# Assay in all cases: SEC
# [1] = biological target: Recombinant GST-fusion HRV-A34 VP1 with a C-terminal histidine tag (human rhinovirus A34 (HRV-A species))
# [2] = biological target: Recombinant GST-fusion HRV-B69 VP1 with a C-terminal histidine tag (human rhinovirus B69 (HRV-B species))
# [3] = biological target: Recombinant GST-fusion HRV-C3 VP1 with a C-terminal histidine tag (human rhinovirus C3 (HRV-C species))
# [4] = biological target: Recombinant GST-fusion HRV-C5 VP1 with a C-terminal histidine tag (human rhinovirus C5 (HRV-C species))
# [5] = biological target: Recombinant GST-fusion human poliovirus (HPV) Sabin VP1 with a C-terminal histidine tag (human poliovirus Sabin)
# SEC = biological target: the molecule itself
molecule,measurement,setting,value
Recombinant GST-fusion HRV-A34 VP1 with a C-terminal histidine tag (natural protein),stoichiometry N,[1],10
Recombinant GST-fusion HRV-B69 VP1 with a C-terminal histidine tag (natural protein),stoichiometry N,[2],10
Recombinant GST-fusion HRV-C3 VP1 with a C-terminal histidine tag (natural protein),stoichiometry N,[3],10
Recombinant GST-fusion HRV-C5 VP1 with a C-terminal histidine tag (natural protein),stoichiometry N,[4],10
Recombinant GST-fusion human poliovirus (HPV) Sabin VP1 with a C-terminal histidine tag (natural protein),stoichiometry N,[5],10
B1,stoichiometry N,SEC,~10
B2,stoichiometry N,SEC,~10
